{
  "source": "paper PMC2945607",
  "about": "(Molecular cell, 2010)",
  "binders": {"B1": {"name": "His6-FzlA (natural protein, Caulobacter crescentus, UniProt Q9A2C6 1-228, looked up)", "chain": "MSVERTLHHFPLDPASRQVRLALGEKRLPFVEMQVRYWEMPPEFTSLNPSGMPPVLVETKHQRNLVICETRAILEHIEETETEPPLLGRDPAERAEARRLLQWFDRKFDNEVNGFLLHEKMEKRLLRMGAPDLAALRQGREALRMHLGYIESLLQTRDWLAGRRMSLADFAAAAHLSVIDYFGDVPWKDFQAAKTWYMKLKSRPCFRPILADRWPGLAPAAHYDDLDF"}},
  "target": "T1, recombinant Caulobacter FtsZ (Caulobacter crescentus, UniProt B8H080 1-508)",
  "T1 sequence (looked up)": "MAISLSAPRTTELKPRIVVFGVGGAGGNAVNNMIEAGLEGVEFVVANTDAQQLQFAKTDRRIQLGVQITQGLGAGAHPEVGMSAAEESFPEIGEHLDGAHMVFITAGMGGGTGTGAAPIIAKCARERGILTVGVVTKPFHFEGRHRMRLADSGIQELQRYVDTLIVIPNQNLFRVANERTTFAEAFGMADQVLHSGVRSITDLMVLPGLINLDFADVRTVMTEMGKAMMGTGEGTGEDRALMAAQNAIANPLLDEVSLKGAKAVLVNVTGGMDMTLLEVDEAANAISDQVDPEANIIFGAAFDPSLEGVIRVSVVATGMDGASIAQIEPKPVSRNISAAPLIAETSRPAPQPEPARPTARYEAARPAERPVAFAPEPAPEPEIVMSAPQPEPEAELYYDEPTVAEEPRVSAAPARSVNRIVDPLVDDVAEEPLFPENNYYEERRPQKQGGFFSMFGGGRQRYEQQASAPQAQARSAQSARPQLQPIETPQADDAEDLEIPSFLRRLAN",
  "test": "right angle light scattering",
  "data": [
    {"binder": "B1", "values": [
      {"measurement": "fold increase in light scattering at steady state against FtsZ without FzlA", "value": "> 10", "unit": "fold"}
    ]}
  ]
}
